Target: anti-BCR-ABL three-finger peptide 1A-2A-3B (synthetic)
Experiment: phage ELISA after capture on streptavidin beads; +/-0.4e-7 M; Zn, PBS, 20 C
Conditions: source form inferred; label: 5'-biotin

Chain of anti-BCR-ABL three-finger peptide 1A-2A-3B (synthetic) (chain, as listed by the source): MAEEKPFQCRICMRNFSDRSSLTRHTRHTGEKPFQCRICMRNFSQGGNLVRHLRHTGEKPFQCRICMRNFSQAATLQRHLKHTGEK

B1: p190 BCR-ABL cDNA fusion site oligo (dsDNA)
DNA 1: GAGACGCAGAAGCCCTTC
DNA 2: GAAGGGCTTCTGCGTCTC
  Kd: 620 nM

From patent USRE42211, “Relating to binding proteins for recognition of DNA” (Gendaq, Limited)
